Data: paper PMC2699591

Molecular target: GST-LB3-coil2 (Xenopus)
Assay: biosensor binding studies

Work on “6His-tagged full-length Nudel (6His-Nudel, 1-345 aa) (natural protein)” yielded a Kd of 50 µM.
